Biological target: T1, RVFV glycoprotein Gn head domain (154–469 aa) (Rift Valley fever virus), P21401
T1 chain: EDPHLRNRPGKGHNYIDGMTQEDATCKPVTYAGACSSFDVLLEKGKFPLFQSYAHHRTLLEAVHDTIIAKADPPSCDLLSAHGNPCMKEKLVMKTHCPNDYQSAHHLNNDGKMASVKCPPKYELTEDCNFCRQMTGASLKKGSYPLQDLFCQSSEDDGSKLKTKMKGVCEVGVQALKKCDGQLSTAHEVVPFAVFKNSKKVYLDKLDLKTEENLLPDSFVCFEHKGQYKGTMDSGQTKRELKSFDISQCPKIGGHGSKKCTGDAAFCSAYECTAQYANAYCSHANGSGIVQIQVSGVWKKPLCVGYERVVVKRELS
Experiment: BLI
Details: modification not given

B1: 23-Fc (peptide)
chain: HVCLPSQFKCTNTNRCIPGIFRCNGQDNCGDGEDERDCPE
Kd: 260 nM

From article PMC12839305
